Molecular target: T1, human Melanoma-associated Chondroitin Sulfate Proteoglycan (MCSP) (human, UniProt Q6UVK1 30-2322)
T1 construct: whole, on cells; also called CSPG4; NG2
Assay: flow cytometry on B16F10-MCSP (C25) cells, detected with Strep-PE or fold-specific anti-H-2K antibody

T1 sequence (Q6UVK1 30-2322): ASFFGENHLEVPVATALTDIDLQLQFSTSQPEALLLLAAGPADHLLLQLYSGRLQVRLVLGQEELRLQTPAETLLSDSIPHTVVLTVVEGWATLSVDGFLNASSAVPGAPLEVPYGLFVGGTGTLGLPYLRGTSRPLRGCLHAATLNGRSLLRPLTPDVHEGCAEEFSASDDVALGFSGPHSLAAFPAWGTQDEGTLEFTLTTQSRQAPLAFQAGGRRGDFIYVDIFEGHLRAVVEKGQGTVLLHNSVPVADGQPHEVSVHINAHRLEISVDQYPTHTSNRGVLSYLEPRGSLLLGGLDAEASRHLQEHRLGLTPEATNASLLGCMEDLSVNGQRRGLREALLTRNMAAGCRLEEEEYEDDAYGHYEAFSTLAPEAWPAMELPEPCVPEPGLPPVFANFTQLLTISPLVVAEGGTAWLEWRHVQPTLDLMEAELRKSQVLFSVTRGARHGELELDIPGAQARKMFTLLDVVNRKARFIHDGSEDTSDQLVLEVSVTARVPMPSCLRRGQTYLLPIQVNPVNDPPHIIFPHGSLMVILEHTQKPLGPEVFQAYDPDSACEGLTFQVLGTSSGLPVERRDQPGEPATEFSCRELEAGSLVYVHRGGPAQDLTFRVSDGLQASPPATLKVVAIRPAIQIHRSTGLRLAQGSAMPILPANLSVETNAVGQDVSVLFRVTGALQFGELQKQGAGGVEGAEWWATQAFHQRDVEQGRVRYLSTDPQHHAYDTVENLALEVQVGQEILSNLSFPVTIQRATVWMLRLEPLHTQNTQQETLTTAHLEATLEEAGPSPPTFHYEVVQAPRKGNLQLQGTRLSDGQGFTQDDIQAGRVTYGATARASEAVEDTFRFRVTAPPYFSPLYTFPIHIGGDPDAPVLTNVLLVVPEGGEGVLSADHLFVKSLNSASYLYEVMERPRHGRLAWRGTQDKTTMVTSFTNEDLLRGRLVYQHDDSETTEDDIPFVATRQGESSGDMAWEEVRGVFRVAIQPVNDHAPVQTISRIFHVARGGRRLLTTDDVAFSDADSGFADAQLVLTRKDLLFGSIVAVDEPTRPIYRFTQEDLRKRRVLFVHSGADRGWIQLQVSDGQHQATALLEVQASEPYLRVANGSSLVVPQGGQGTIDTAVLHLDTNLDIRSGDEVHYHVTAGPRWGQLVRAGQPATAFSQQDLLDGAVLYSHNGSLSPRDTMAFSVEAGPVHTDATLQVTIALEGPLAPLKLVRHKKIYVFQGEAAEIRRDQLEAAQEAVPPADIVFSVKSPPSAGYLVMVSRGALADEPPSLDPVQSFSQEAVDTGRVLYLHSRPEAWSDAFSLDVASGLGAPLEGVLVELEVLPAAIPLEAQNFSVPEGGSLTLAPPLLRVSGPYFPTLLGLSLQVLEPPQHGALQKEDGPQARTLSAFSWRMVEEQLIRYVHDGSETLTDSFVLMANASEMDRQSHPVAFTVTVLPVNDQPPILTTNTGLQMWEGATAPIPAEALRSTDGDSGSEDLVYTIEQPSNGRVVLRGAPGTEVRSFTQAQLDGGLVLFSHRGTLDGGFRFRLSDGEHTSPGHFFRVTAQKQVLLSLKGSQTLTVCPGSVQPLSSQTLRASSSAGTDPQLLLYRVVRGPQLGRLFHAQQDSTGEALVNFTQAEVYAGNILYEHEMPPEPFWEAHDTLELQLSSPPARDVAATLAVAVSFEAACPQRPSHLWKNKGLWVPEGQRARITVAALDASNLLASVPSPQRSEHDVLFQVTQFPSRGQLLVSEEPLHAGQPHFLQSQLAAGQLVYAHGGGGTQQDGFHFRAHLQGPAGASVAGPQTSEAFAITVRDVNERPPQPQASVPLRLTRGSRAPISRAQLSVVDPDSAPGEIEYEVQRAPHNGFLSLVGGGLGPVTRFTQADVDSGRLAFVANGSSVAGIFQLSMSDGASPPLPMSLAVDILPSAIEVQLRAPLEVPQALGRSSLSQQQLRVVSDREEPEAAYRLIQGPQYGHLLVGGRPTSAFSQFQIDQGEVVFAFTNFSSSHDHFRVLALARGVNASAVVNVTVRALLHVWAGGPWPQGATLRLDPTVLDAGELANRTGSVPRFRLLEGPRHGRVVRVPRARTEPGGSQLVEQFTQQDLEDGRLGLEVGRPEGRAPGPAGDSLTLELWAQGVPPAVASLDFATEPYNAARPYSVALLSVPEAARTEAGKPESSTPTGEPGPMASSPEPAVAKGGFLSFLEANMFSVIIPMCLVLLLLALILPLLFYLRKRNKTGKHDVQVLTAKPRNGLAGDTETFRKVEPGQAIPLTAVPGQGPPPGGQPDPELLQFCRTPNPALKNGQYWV

B1: BA5 biotinylated peptide-H-2Kb-anti-MCSP scFv fusion protein, 20 amino acid β2M-MHC linker (peptide-MHC)
chain: RTYTYEKLGGGGSGGGGSGGGGSIQKTPQIQVYSRHPPENGKPNILNCYVTQFHPPHIEIQMLKNGKKIPKVEMSDMSFSKDWSFYILAHTEFTPTETDTYACRVKHVSMAEPKTVYWDRDMGGGGSGGGGSGGGGSGGGGSGPHSLRYFVTAVSRPGLGEPRYMEVGYVDDTEFVRFDSDAENPRYEPRARWMEQEGPEYWERETQKAKGNEQSFRVDLRTLLGYYNQSKGGSHTIQVISGCEVGSDGRLLRGYQQYAYDGCDYIALNEDLKTWTAADMAALITKHKWEQAGEAERLRAYLEGTCVEWLRRYLKNGNATLLRTDSPKAHVTHHSRPEDKVTLRCWALGFYPADITLTWQLNGEELIQDMELVETRPAGDGTFQKWASVVVPLGKEQYYTCHVYHQGLPEPLTLRWEPPPSTASGGQVKLQQSGGGLVQPGGSMKLSCVVSGFTFSNYWMNWVRQSPEKGLEWIAEIRLKSNNFGRYYAESVKGRFTISRDDSKSSAYLQMINLRAEDTGIYYCTSYGNYVGHYFDHWGQGTTVTVSSGGGGSGGGGSGGGGSDIELTQSPKFMSTSVGDRVSVTCKASQNVDTNVAWYQQKPGQSPEPLLFSASYRYTGVPDRFTGSGSGTDFTLTISNVQSEDLAEYFCQQYNSYPLTFGGGTKLEIKRAHHHHHHGLNDIFEAQKIEWH
notes: also called BA-biotin fusion molecule; biotinylated ScFv-MHC molecule
B1: binds.
